From patent US20150362492A1 (DYAX, published 2015)

Target: T1, purified human plasma kallikrein (active form), biotinylated (human, UniProt P03952 20-390; P03952 391-638, biotinylated with Sulfo-NHS-LC-Biotin (sites not given))
T1 construct: The protein was captured on avidin-coated plates through biotin; also called pKal; PKal
Experiment: complex ELISA: biotinylated kallikrein captured on avidin plate, incubated with plasma, bound C1-INH detected with polyclonal anti-C1-INH and alkaline phosphatase secondary antibody
Description: Immulon 2HB plates were coated with 5 μg/ml avidin in coating buffer (100 μl) overnight at 4° C. Plates were washed three times using PBS-Tween (200 μl/each). Subsequently, 200 μl 1% BSA in PBS was added to block the unused sites. The plates were incubated at 37° C. for 1 hr. Plates were washed three times using PBS-Tween (200 μl/each). Added to the plates were: 25 μl standards or samples, 25 μl biotinylated […] and/or biotinylated kallikrein (1 μg/ml), and 50 μl binding buffer. Plates were mixed and incubated at 37° C. for 1 hour. Plates were washed three times using PBS-Tween (200 μl/each). A polyclonal antibody to C1-INH was added and incubated at room temperature for 1 hour. Plates were washed three times using PBS-Tween (200 μl/each). Alkaline phosphatase conjugated secondary antibody was added and incubated at room temperature for 1 hour. […] The OD at 450 nm was read and calculations were performed using the standard curve.
One consideration in development of the assay was that it is beneficial to employ an assay that quantitates functional C1-INH based on an enzyme that is requisite for bradykinin formation. […] Nevertheless, complex ELISA assays detecting functional interaction between C1-INH and either Factor XIIa or kallikrein worked well since only that fraction of kallikrein (˜60%) that is inhibited by C1-INH is detected.

T1 sequence (P03952 20-390, chain 1 of 2): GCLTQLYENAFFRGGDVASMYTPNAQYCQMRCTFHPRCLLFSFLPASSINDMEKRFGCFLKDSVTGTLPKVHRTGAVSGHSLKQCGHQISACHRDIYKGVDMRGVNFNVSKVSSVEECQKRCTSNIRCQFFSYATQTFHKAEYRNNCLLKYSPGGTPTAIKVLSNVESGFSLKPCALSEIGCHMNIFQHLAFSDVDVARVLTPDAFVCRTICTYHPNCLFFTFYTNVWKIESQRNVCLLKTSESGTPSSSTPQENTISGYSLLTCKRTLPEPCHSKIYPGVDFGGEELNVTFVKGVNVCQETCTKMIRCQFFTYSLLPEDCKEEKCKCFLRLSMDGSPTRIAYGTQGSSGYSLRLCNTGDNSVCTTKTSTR
T1 sequence (P03952 391-638, chain 2 of 2): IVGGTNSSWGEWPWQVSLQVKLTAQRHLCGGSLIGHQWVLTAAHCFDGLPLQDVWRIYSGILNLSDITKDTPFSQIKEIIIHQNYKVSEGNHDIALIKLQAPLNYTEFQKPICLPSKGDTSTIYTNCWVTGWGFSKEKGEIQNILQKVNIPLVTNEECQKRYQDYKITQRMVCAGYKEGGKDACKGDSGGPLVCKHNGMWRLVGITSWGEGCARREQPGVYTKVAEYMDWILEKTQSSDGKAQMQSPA

B1: plasma protease C1 inhibitor (C1-INH) in plasma of healthy (normal) controls (other)
chain: NPNATSSSSQDPESLQDRGEGKVATTVISKMLFVEPILEVSSLPTTNSTTNSATKITANTTDEPTTQPTTEPTTQPTIQPTQPTTQLPTDSPTQPTTGSFCPGPVTLCSDLESHSTEAVLGDALVDFSLKLYHAFSAMKKVETNMAFSPFSIASLLTQVLLGAGENTKTNLESILSYPKDFTCVHQALKGFTTKGVTSVSQIFHSPDLAIRDTFVNASRTLYSSSPRVLSNNSDANLELINTWVAKNTNNKISRLLDSLPSDTRLVLLNAIYLSAKWKTTFDPKKTRMEPFHFKNSVIKVPMMNSKKYPVAHFIDQTLKAKVGQLQLSHNLSLVILVPQNLKHRLEDMEQALSPSVFKAIMEKLEMSKFQPTLLTLPRIKVTTSQDMLSIMEKLEFFDFSYDLNLCGLTEDPDLQVSAMQHQTVLELTETGVEAAAASAISVARTLLVFEVQQPFLFVLWDQQHKFPVFMGRVYDPRA
notes: Native C1-INH as present in citrated plasma of healthy human controls (purified C1-INH in buffer was used for the standard curve); also called functional C1-INH
B1: binds.
